These are literature values, as cited in patent US20220119510A1, “ANTI-POLYETHYLENE GLYCOL (PEG) ANTIBODY MOUSE MODEL FOR RIGOROUS ASSESSMENT OF PEG-BASED THERAPIES: ADJUVANT-FREE INDUCTION MODEL” (Northwestern University, priority 2020, published 2022).

The test system of this data set is rabbits.

B1: PEGylated ovalbumin: PEGylated ovalbumin used to immunize rabbits (conjugate, UniProt P01012 2-386, looked up)
Ovalbumin: GSIGAASMEFCFDVFKELKVHHANENIFYCPIAIMSALAMVYLGAKDSTRTQINKVVRFDKLPGFGDSIEAQCGTSVNVHSSLRDILNQITKPNDVYSFSLASRLYAEERYPILPEYLQCVKELYRGGLEPINFQTAADQARELINSWVESQTNGIIRNVLQPSSVDSQTAMVLVNAIVFKGLWEKAFKDEDTQAMPFRVTEQESKPVQMMYQIGLFRVASMASEKMKILELPFASGTMSMLVLLPDEVSGLEQLESIINFEKLTEWTSSNVMEERKIKVYLPRMKMEEKYNLTSVLMAMGITDVFSSSANLSGISSAESLKISQAVHAAHAEINEAGREVVGSAEAGVDAASVSEEFRADHPFLFCIKHIATNAVLFFGRCVSP
modifications: PEGylated
notes: PEGylated ovalbumin used to immunize rabbits
As for B1, the “anti-PEG antibodies after immunization” value is on record as “anti-PEG antibodies were first observed”.
